Where only a bound is given, the exact number is not on record here.

In test [1] the target is human TIGIT expressed on cells (YTS-TIGIT transfectants, NK cells of healthy donors, CD8+ TILs) (human) (UniProt Q495A1). As to the kind of experiment: FACS on 75×10^3 YTS-TIGIT cells, serial dilutions 250 nM to 65 fM.
Test [2] has the same target. As to the kind of experiment: FACS blocking assay on YTS-TIGIT cells: antibody titrated against 2.5 pmole PVR-Fc, bound PVR-Fc detected.
The target is the same in test [3]. Nature of the test: FACS on YTS-TIGIT cells in the presence of 2.5 pmole PVR-Fc, bound antibody detected with anti-mouse IgG Alexa Fluor 647.
For test [4], the target named is T1, human TIGIT from two commercial sources (loaded on Biacore biosensor) (human, UniProt Q495A1 22-141).
T1 sequence (looked up): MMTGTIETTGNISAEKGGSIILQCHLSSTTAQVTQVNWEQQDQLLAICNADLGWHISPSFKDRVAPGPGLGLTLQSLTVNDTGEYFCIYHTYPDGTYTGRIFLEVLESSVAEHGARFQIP
As to the kind of experiment: SPR (Biacore), human TIGIT on the biosensor; average of two commercial sources; average of the two TIGIT sources. The procedure:
(§1) Surface plasmon resonance (SPR) Biosensor Biacore™ T100 (GE Healthcare) was used to determine Koff, Kon and KD between the antibodies and TIGIT.
(§2) Full binding kinetic analyses of the mAbs to human TIGIT from two sources were carried out using Biacore.
In general terms: In SPR one partner is held on a chip, and binding of the other changes the refractive index at the surface.

The target in test [5] is T1, human TIGIT from two commercial sources …. Nature of the test: SPR (Biacore), human TIGIT on the biosensor; one of two commercial sources; one of two TIGIT sources (source not named). The procedure:
as §1, §2

For test [6] the target is unchanged. Nature of the test: SPR (Biacore), human TIGIT on the biosensor; one of two commercial sources; the other of two TIGIT sources (source not named). On the procedure: as §1, §2
Test [7] addresses T2, human TIGIT expressed on cells (YTS-TIGIT transfectants, NK cells of healthy donors, CD8+ TILs) (human, UniProt Q495A1 22-244).
T2 construct: whole, on cells; also called hTIGIT; T-cell immunoglobulin and ITIM domain
T2 sequence (looked up): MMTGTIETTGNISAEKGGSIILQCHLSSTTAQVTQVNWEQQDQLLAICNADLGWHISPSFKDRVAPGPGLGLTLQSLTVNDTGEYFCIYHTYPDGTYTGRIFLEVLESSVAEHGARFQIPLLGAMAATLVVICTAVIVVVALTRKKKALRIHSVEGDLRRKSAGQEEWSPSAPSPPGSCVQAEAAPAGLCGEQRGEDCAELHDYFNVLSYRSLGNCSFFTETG
As to the kind of experiment: FACS titration on YTS-TIGIT cells, fluorescence intensity against antibody concentration. The source says:
FIG. 6A. […] Background—staining of mIgG (grey filled histograms). Each panel represents a specific concentration of the antibodies as indicated. Y-axis of each panel is cell counts and X-axis is fluorescence intensity (FL1-H).

In the case of “commercial anti-TIGIT antibody MBSA43 (eBioscience Cat#12-9500-42)”, in test [1], the lowest concentration at which cells were stained was more than 1950 fM. In test [2], this molecule returned an MFI of bound PVR-Fc, antibody at 0.014 pmol of 34; an MFI of bound PVR-Fc, antibody at 0.028 pmol of 27.1; an MFI of bound PVR-Fc, antibody at 0.056 pmol of 22.6; an MFI of bound PVR-Fc, antibody at 0.115 pmol of 12.6. In test [2], this molecule showed an MFI of bound PVR-Fc, antibody at 0.21 pmol of 7.8 and an MFI of bound PVR-Fc, antibody at 0.425 pmol of 4.5. For the same molecule, in test [3], the MFI of bound antibody at 0.014 pmol was found to be 64, the MFI of bound antibody at 0.028 pmol came out at 88, the MFI of bound antibody at 0.056 pmol stood at 150 and the MFI of bound antibody at 0.115 pmol is 224. For the same molecule, in test [3], the MFI of bound antibody at 0.21 pmol was 302, the MFI of bound antibody at 0.425 pmol was 325, the MFI of bound antibody at 0.85 pmol is 380 and the MFI of bound antibody at 27 pmol was determined as 445.

B1: anti human TIGIT monoclonal antibody 258-CS1#4 (antibody, V domains shown)
VH: QVQLLQPGAELVKPGASVKLSCKASGYTFTIYCIHWVKQRPGQGLEWIGEISPSNGRTIYNEKFKNKATLTIDKSSTTAYMQLSSLTSEDSAVYCCAISDGYDGYYFDYWGQGTTLTVSS
VL: DIQMTQSPSSLSASLGERVSLTCRASQEISGYLNWLQQKPDGTIKRLIYAASTLDSGVPKRFSGSRSGSDYSLTISRLESEDFADYYCLQYASYPRTFGGGTKLEIK
notes: Mouse monoclonal antibody from a hybridoma
As to B1, the Kd (commonly the free concentration of one partner at which half of the binding sites on the other are occupied at equilibrium, for simple one-to-one binding) in test [4] is approximately 100 nM; in test [5], 99.6 nM; in test [6], 107 nM.

B2: anti human TIGIT monoclonal antibody VSIG9#1 (antibody, V domains shown)
VH: QVQLQESGAELARPGASVKLSCKASGYTFTSYGISWVKQRTGQGLEWIGEIYPRSGNTYYNEKFKGKATLTADKSSSTAYMELSSLTSEDSAVYFCARKGPYYTKNEDYWGQGTILTVSS
VL: DIQMTQSPASLAASVGETVTITCRASEHIYYSLAWYQQKQGKSPQLLIYNANSLEDGVPSRFSGSGSGTQYSMKINSMQPEDTATYFCKQAYDVPRTFGGGTKLEIKR
notes: Mouse monoclonal antibody from a hybridoma; It was detected with anti-mouse IgG; also called Vsig9.01; anti TIGIT-VSIG9#1
Take B2: in test [7], the concentration giving a half-maximal response (EC50 (read off the curve)) (in general, the concentration needed to bring the measured effect to its halfway point) was approximately 7 pM. Also, the Kd stood at 0.45 nM in test [4], 0.513 nM in test [5] and 0.387 nM in test [6].

(Values after patent publication US20210220472A1 (YISSUM RESEARCH DEVELOPMENT COMPANY OF THE HEBREW …, published 2021).)
